{"source": "the supplement of paper PMC6755084", "parents": {"B1": {"name": "minF1; the commonest letter at each place (parent)", "chain": "GAGACCGCAACTGAAAAGTTGTTATCAGAAATGGATGGGTTGAATTTCTGCACGTAGAAGCAAAAGGC"}}}
{"variants_of": "B1", "test": "fraction ligated after 30 min (ligated reads / total reads); higher = more ligase activity", "conditions": "with F1*subA RNA substrate (template-directed ligation), 42 °C", "procedure,_shortened": "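Minimized ligase ribozyme variants came from oligo-pool templates that were PCR-amplified, T7-transcribed and gel-purified. Their ligated and unligated RNAs were separated on gels before barcoded reverse transcription and MiSeq sequencing, with core bases kept only at quality ≥30. The fraction ligated for each variant is its ligated reads as a proportion of all its reads.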"}
{"variant": "T32G G37A", "fraction ligated": 0.00205}
{"variant": "T32G G37C", "fraction ligated": 0.0035}
{"variant": "T32G G37T", "fraction ligated": 0.00459}
{"variant": "T32G G42A", "fraction ligated": 0.00352}
{"variant": "T32G G42C", "fraction ligated": 0.00582}
{"variant": "T32G G42T", "fraction ligated": 0.00243}
{"variant": "T32G T36A", "fraction ligated": 0.00414}
{"variant": "T32G T36C", "fraction ligated": 0.00404}
{"variant": "T32G T36G", "fraction ligated": 0.00871}
{"variant": "G33A", "fraction ligated": 0.817}
{"variant": "G33A A35C", "fraction ligated": 0.026}
{"variant": "G33A A35G", "fraction ligated": 0.265}
{"variant": "G33A A35T", "fraction ligated": 0.0202}
{"variant": "G33A A43C", "fraction ligated": 0.0816}
{"variant": "G33A A43G", "fraction ligated": 0.0533}
{"variant": "G33A A43T", "fraction ligated": 0.0914}
{"variant": "G33A A44C", "fraction ligated": 0.479}
{"variant": "G33A A44G", "fraction ligated": 0.576}
{"variant": "G33A A44T", "fraction ligated": 0.553}
{"variant": "G33A G34A", "fraction ligated": 0.334}
{"variant": "G33A G34C", "fraction ligated": 0.00342}
{"variant": "G33A G34T", "fraction ligated": 0.00656}
{"variant": "G33A G37A", "fraction ligated": 0.00769}
{"variant": "G33A G37C", "fraction ligated": 0.00669}
{"variant": "G33A G37T", "fraction ligated": 0.0175}
{"variant": "G33A G42A", "fraction ligated": 0.228}
{"variant": "G33A G42C", "fraction ligated": 0.0145}
{"variant": "G33A G42T", "fraction ligated": 0.102}
{"variant": "G33A T36A", "fraction ligated": 0.0257}
{"variant": "G33A T36C", "fraction ligated": 0.0229}
{"variant": "G33A T36G", "fraction ligated": 0.0572}
{"variant": "G33C", "fraction ligated": 0.804}
{"variant": "G33C A35C", "fraction ligated": 0.0133}
{"variant": "G33C A35G", "fraction ligated": 0.0844}
{"variant": "G33C A35T", "fraction ligated": 0.0199}
{"variant": "G33C A43C", "fraction ligated": 0.0394}
{"variant": "G33C A43G", "fraction ligated": 0.0324}
{"variant": "G33C A43T", "fraction ligated": 0.0544}
{"variant": "G33C A44C", "fraction ligated": 0.383}
{"variant": "G33C A44G", "fraction ligated": 0.497}
{"variant": "G33C A44T", "fraction ligated": 0.598}
{"variant": "G33C G34A", "fraction ligated": 0.18}
{"variant": "G33C G34C", "fraction ligated": 0.00483}
{"variant": "G33C G34T", "fraction ligated": 0.00568}
{"variant": "G33C G37A", "fraction ligated": 0.00724}
{"variant": "G33C G37C", "fraction ligated": 0.00381}
{"variant": "G33C G37T", "fraction ligated": 0.01}
{"variant": "G33C G42A", "fraction ligated": 0.132}
{"variant": "G33C G42C", "fraction ligated": 0.011}
{"variant": "G33C G42T", "fraction ligated": 0.0409}
{"variant": "G33C T36A", "fraction ligated": 0.0174}
{"variant": "G33C T36C", "fraction ligated": 0.00989}
{"variant": "G33C T36G", "fraction ligated": 0.0305}
{"variant": "G33T", "fraction ligated": 0.605}
{"variant": "G33T A35C", "fraction ligated": 0.0181}
{"variant": "G33T A35G", "fraction ligated": 0.0792}
{"variant": "G33T A35T", "fraction ligated": 0.0191}
{"variant": "G33T A43C", "fraction ligated": 0.0254}
{"variant": "G33T A43G", "fraction ligated": 0.0169}
{"variant": "G33T A43T", "fraction ligated": 0.0265}
{"variant": "G33T A44C", "fraction ligated": 0.149}
{"variant": "G33T A44G", "fraction ligated": 0.249}
{"variant": "G33T A44T", "fraction ligated": 0.299}
{"variant": "G33T G34A", "fraction ligated": 0.051}
{"variant": "G33T G34C", "fraction ligated": 0.00646}
{"variant": "G33T G34T", "fraction ligated": 0.00514}
{"variant": "G33T G37A", "fraction ligated": 0.00704}
{"variant": "G33T G37C", "fraction ligated": 0.00397}
{"variant": "G33T G37T", "fraction ligated": 0.00922}
{"variant": "G33T G42A", "fraction ligated": 0.0913}
{"variant": "G33T G42C", "fraction ligated": 0.0103}
{"variant": "G33T G42T", "fraction ligated": 0.0256}
{"variant": "G33T T36A", "fraction ligated": 0.0253}
{"variant": "G33T T36C", "fraction ligated": 0.0104}
{"variant": "G33T T36G", "fraction ligated": 0.0372}
{"variant": "G34A", "fraction ligated": 0.0464}
{"variant": "G34A A35C", "fraction ligated": 0.00719}
{"variant": "G34A A35G", "fraction ligated": 0.00813}
{"variant": "G34A A35T", "fraction ligated": 0.0147}
{"variant": "G34A A43C", "fraction ligated": 0.00464}
{"variant": "G34A A43G", "fraction ligated": 0.00716}
{"variant": "G34A A43T", "fraction ligated": 0.00502}
{"variant": "G34A A44C", "fraction ligated": 0.008}
{"variant": "G34A A44G", "fraction ligated": 0.019}
{"variant": "G34A A44T", "fraction ligated": 0.0265}
{"variant": "G34A G37A", "fraction ligated": 0.00394}
{"variant": "G34A G37C", "fraction ligated": 0.00312}
{"variant": "G34A G37T", "fraction ligated": 0.00793}
{"variant": "G34A G42A", "fraction ligated": 0.0111}
{"variant": "G34A G42C", "fraction ligated": 0.00302}
{"variant": "G34A G42T", "fraction ligated": 0.00582}
{"variant": "G34A T36A", "fraction ligated": 0.0315}
{"variant": "G34A T36C", "fraction ligated": 0.0256}
{"variant": "G34A T36G", "fraction ligated": 0.0395}
{"variant": "G34C", "fraction ligated": 0.00469}
{"variant": "G34C A35C", "fraction ligated": 0.00352}
{"variant": "G34C A35G", "fraction ligated": 0.00539}
{"variant": "G34C A35T", "fraction ligated": 0.00667}
{"variant": "G34C A43C", "fraction ligated": 0.00266}
{"variant": "G34C A43G", "fraction ligated": 0.00118}
{"variant": "G34C A43T", "fraction ligated": 0.0056}
{"variant": "G34C A44C", "fraction ligated": 0.00339}
{"variant": "G34C A44G", "fraction ligated": 0.00318}
{"variant": "G34C A44T", "fraction ligated": 0.00566}
{"variant": "G34C G37A", "fraction ligated": 0.00257}
{"variant": "G34C G37C", "fraction ligated": 0.00307}
{"variant": "G34C G37T", "fraction ligated": 0.00343}
{"variant": "G34C G42A", "fraction ligated": 0.00229}
{"variant": "G34C G42C", "fraction ligated": 0.00271}
{"variant": "G34C G42T", "fraction ligated": 0.00284}
{"variant": "G34C T36A", "fraction ligated": 0.00257}
{"variant": "G34C T36C", "fraction ligated": 0.00419}
{"variant": "G34C T36G", "fraction ligated": 0.00561}
{"variant": "G34T", "fraction ligated": 0.00484}
{"variant": "G34T A35C", "fraction ligated": 0.00324}
{"variant": "G34T A35G", "fraction ligated": 0.0067}
{"variant": "G34T A35T", "fraction ligated": 0.00561}
{"variant": "G34T A43C", "fraction ligated": 0.00412}
{"variant": "G34T A43G", "fraction ligated": 0.0028}
{"variant": "G34T A43T", "fraction ligated": 0.00646}
{"variant": "G34T A44C", "fraction ligated": 0.00445}
{"variant": "G34T A44G", "fraction ligated": 0.00592}
{"variant": "G34T A44T", "fraction ligated": 0.00748}
{"variant": "G34T G37A", "fraction ligated": 0.00473}
{"variant": "G34T G37C", "fraction ligated": 0.00496}
{"variant": "G34T G37T", "fraction ligated": 0.00356}
{"variant": "G34T G42A", "fraction ligated": 0.00242}
{"variant": "G34T G42C", "fraction ligated": 0.00101}
{"variant": "G34T G42T", "fraction ligated": 0.00241}
{"variant": "G34T T36A", "fraction ligated": 0.00722}
{"variant": "G34T T36C", "fraction ligated": 0.00276}
{"variant": "G34T T36G", "fraction ligated": 0.00275}
{"variant": "A35C", "fraction ligated": 0.0267}
{"variant": "A35C A43C", "fraction ligated": 0.00377}
{"variant": "A35C A43G", "fraction ligated": 0.00754}
{"variant": "A35C A43T", "fraction ligated": 0.00614}
{"variant": "A35C A44C", "fraction ligated": 0.00567}
{"variant": "A35C A44G", "fraction ligated": 0.00784}
{"variant": "A35C A44T", "fraction ligated": 0.0114}
{"variant": "A35C G37A", "fraction ligated": 0.00266}
{"variant": "A35C G37C", "fraction ligated": 0.00352}
{"variant": "A35C G37T", "fraction ligated": 0.00578}
{"variant": "A35C G42A", "fraction ligated": 0.00288}
{"variant": "A35C G42C", "fraction ligated": 0.00254}
{"variant": "A35C G42T", "fraction ligated": 0.00281}
{"variant": "A35C T36A", "fraction ligated": 0.00922}
{"variant": "A35C T36C", "fraction ligated": 0.00473}
{"variant": "A35C T36G", "fraction ligated": 0.00841}
{"variant": "A35G", "fraction ligated": 0.271}
{"variant": "A35G A43C", "fraction ligated": 0.00434}
{"variant": "A35G A43G", "fraction ligated": 0.00504}
{"variant": "A35G A43T", "fraction ligated": 0.0109}
{"variant": "A35G A44C", "fraction ligated": 0.0421}
{"variant": "A35G A44G", "fraction ligated": 0.0773}
{"variant": "A35G A44T", "fraction ligated": 0.105}
{"variant": "A35G G37A", "fraction ligated": 0.00295}
{"variant": "A35G G37C", "fraction ligated": 0.0017}
{"variant": "A35G G37T", "fraction ligated": 0.00458}
{"variant": "A35G G42A", "fraction ligated": 0.0121}
{"variant": "A35G G42C", "fraction ligated": 0.00281}
{"variant": "A35G G42T", "fraction ligated": 0.00567}
{"variant": "A35G T36A", "fraction ligated": 0.00856}
{"variant": "A35G T36C", "fraction ligated": 0.00252}
{"variant": "A35G T36G", "fraction ligated": 0.00747}
{"variant": "A35T", "fraction ligated": 0.037}
{"variant": "A35T A43C", "fraction ligated": 0.00462}
{"variant": "A35T A43G", "fraction ligated": 0.0022}
